Measurements as given in paper PMC12045048.

Target: AMBRA1 (activating molecule in beclin-1-regulated autophagy), endogenous in MDA-MB-231 cells (UniProt Q9C0C7)
Assay: anti-FLAG co-immunoprecipitation with proteomics (spectral counts)
Details: parent: 0

UniProt Q9C0C7, sequence (Q9C0C7 whole entry): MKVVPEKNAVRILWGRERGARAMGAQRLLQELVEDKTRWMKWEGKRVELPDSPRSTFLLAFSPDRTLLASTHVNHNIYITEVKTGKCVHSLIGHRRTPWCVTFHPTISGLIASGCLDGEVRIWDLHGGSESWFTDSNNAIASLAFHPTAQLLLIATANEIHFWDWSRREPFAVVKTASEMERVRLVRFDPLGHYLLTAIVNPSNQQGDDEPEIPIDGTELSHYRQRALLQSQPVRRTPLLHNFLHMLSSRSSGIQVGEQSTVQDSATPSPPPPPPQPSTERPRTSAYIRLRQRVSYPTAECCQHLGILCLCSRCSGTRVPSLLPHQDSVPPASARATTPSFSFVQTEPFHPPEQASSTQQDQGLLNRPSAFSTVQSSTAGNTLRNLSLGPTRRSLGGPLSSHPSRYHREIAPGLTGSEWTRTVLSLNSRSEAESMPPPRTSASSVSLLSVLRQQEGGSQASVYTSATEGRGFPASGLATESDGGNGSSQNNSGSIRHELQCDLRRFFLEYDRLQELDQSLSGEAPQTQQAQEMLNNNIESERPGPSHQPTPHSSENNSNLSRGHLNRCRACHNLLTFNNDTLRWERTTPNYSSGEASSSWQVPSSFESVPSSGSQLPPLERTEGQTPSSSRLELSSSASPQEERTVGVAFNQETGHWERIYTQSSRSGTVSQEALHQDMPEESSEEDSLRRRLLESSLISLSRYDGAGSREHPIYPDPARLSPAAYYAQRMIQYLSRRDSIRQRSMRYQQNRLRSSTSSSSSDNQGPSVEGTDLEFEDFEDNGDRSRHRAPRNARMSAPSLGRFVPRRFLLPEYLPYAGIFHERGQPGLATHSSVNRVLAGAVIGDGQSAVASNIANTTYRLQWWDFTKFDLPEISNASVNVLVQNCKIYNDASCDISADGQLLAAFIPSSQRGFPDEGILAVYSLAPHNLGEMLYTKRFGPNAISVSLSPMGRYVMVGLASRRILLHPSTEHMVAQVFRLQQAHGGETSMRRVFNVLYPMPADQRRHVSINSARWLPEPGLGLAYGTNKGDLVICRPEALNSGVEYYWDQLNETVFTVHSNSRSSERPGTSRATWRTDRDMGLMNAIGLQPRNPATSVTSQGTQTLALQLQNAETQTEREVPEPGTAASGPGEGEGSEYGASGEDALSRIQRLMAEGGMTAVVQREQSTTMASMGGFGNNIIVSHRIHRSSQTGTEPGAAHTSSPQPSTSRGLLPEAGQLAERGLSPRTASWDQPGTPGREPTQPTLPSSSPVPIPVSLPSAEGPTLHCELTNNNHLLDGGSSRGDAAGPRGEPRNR

- other: Spectral Counts (spectral counts): 7
Substance: FLAG–Rab40c (wild type) in MDA-MB-231 cells (from UniProt Q96S21) 4A (211-LPLP-216 to 211-AAAA-216)
